Experimental data taken from PMC11913275, “Targeting prostate cancer by new bispecific monocyte engager directed to prostate-specific membrane antigen” (PLOS One, 2025).

Target: T1, Prostate-specific membrane antigen (Homo sapiens, UniProt Q04609)
T1 construct: also called PSMA; glutamate carboxypeptidase II; source: on PSMA-positive PC3-PIP cells
Test: flow cytometry on cells; PSMA-positive PC3-PIP cells (PC3 as negative control) mixed with 5-fold dilution series of the construct, 20 μL, 15 min at 4°C; 5D3-CP33 detected by anti-Strep tag antibody and Alexa Fluor 647 secondary, ch5D3 by anti-human Alexa Fluor 647 secondary; KD by non-linear regression
Details: one partner purified

T1 sequence (Q04609 whole entry): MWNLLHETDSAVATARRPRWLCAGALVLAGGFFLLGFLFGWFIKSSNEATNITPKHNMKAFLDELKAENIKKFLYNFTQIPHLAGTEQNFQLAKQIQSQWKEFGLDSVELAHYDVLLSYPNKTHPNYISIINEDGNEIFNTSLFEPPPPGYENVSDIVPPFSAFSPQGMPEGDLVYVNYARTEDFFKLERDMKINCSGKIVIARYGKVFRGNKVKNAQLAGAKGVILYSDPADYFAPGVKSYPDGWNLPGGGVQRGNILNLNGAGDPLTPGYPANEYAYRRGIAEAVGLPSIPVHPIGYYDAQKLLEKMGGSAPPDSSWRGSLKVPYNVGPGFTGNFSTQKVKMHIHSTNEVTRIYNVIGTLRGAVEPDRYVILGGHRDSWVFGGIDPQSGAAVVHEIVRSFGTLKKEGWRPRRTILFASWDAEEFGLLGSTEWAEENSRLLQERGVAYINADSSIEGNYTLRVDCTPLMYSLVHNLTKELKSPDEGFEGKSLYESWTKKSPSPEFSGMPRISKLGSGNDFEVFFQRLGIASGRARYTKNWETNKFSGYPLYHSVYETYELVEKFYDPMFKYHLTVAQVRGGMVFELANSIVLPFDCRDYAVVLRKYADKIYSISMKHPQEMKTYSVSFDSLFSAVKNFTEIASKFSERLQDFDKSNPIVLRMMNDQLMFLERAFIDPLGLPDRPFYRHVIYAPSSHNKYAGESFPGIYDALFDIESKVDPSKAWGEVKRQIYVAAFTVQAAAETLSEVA

B1: 5D3-CP33 bispecific monocyte engager (5D3-scFv HL fused to the N-terminus of CP33) (bispecific antibody, V domains shown)
VH: EVQLQQSGPELVKPGASVKISCKTSGYAFNTSWMNWVKQRPGQGLEWIGRIYPGDGDTNYNGKFKGKATLTADKSSSTAHMHLSSLTSVDSAVYFCARGEWYLYYFDYWGQGTTLTVSS
VL: DIQMTQTTSSLSASLGDRVTISCSASQGINNFLTWYQQKPDGTLKLLIYYTSSLHSGVPSRFSGSGSGTDYSLTIRNLEPEDIATYYCQQYSNLPFTFGGGTKVEIK
notes: VH of the anti-PSMA antibody 5D3 (scFv HL, heavy then light); linker of the 5D3 scFv HL; VL of the anti-PSMA antibody 5D3; The construct has the BiP secretion signal at its N-terminus (vector pMT/BiP/V5-HisA); About 35 kDa; also called 5D3-CP33 fusion; 5D3-scFv-CP33; not shown: SA-strep II, C-terminal, kept
A Kd of 3.4 nM was found for B1 in this work.
